Source: US20190381169A1, “PHARMACEUTICAL COMBINATIONS FOR IMMUNOTHERAPY” (Technische Universitat Dresden, priority 2014, published 2019)
“Also recorded” adds a separate entry of the source.

What was measured:
p75^NTR [1] = biological target: T1, p75^NTR (Mus musculus, UniProt Q9Z0W1); experiment: Expression of MHC and co-stimulatory molecules on murine PDCs; assay type: cell-based
T1 construct: endogenous in cells; host or cells: murine plasmacytoid dendritic cells differentiated in vitro from bone marrow with Flt3-L (p75NTR+/+ wildtype; p75NTR-/- as control)
T1 sequence (Q9Z0W1 32-427): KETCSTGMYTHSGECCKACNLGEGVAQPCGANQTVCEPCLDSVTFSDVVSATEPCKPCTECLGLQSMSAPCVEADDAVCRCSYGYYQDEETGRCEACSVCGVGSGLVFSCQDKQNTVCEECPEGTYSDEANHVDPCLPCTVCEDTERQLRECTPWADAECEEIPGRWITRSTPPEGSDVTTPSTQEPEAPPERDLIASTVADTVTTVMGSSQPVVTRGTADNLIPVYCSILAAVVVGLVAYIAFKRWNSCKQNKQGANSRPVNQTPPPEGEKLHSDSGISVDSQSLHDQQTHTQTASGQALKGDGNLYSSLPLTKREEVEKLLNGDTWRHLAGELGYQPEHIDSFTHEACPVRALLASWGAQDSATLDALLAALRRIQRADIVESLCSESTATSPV

p75^NTR [2] = biological target: T2, p75^NTR (Homo sapiens, UniProt P08138); experiment: Th2 prone GvHD xenotransplantation model: NSG mice given human autologous T-cells and PDCs
T2 sequence (P08138 29-427): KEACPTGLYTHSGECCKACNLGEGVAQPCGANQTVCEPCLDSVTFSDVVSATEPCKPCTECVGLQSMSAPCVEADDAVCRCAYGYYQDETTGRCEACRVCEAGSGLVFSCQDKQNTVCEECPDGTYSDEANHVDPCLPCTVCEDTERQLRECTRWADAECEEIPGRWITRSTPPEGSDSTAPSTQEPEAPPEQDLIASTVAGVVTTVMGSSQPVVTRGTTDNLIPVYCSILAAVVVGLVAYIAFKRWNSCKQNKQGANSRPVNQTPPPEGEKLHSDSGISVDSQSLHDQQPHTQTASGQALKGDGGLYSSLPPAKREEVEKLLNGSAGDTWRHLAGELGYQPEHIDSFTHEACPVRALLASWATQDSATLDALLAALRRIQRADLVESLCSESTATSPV
Protocol: Recipient mice from NSG mouse strain were pre-condition by irradiation with 3 Gy 24 hours before transplantation of human cells
For scoring of GvHD incidence and survival transplanted mice were monitored daily for weight, behaviour, skin, activity, fur and other parameters.
Human, autologous T-cells and PDCs were stimulated either with CpG B or not. Overnight co-cultured was done in the absence or presence of NGF. One day later human cells were transplanted into irradiated NSG mice by i.v. injection.

p75^NTR [3] = biological target: T1, p75^NTR; experiment: Cytokine secretion and TLR9 expression of CpG stimulated murine PDCs; assay type: cell-based
Protocol: Murine PDC were generated in vitro as follows: Bone marrow cells were isolated by flushing femur and tibia of mice. Erythrocytes were lysed using ACK buffer. Remaining cells were washed and cultured at a density of 2×10^6 cells per ml in RPMI 1640 medium supplemented with 10% FCS, 1 mM sodium pyruvat, 2 mM L-glutamine, 100 IU per ml penicillin, 100 μg/ml streptomycin, 10 mM HEPES buffer and 0.1 mM β-mercaptoethanol. To differentiate bone marrow cells into PDCs, 100 ng/ml Flt3-L (fms-like tyrosine kinase 3-ligand) was added to the cells. After 8 days of culture PDCs were enriched by removing the CD11b^+ fraction using CD11b Microbeads (Miltenyi Biotec) according to manufacturer instructions. Dead cells were excluded using Dead cell removal Kit (Miltenyi Biotec). Purity of PDCs was evaluated by flow cytometry (CD11b^−CD11c^+B220^+Siglec-H^+).
Murine PDC express the low affinity neurotrophin receptor p75^NTR but not the high affinity neurotrophin receptors (FIGS. 3A, 3B). […] Furthermore, only p75^NTR expressing PDC (p75^NTR+/+) increased the CPG-ODNs Class B induced secretion of the Th2 response inducing cytokines IL-6 and TNFα in the presence of NGF (FIG. 3D).

[4] = p75^NTR+/+ PDCs stimulated with CpG B, presence of NGF
[5] = p75^NTR+/+ PDCs stimulated with ovalbumin (OVA), NGF added

NGF: Nerve growth factor, best characterized neurotrophin; natural p75^NTR agonist (R&D Systems)
expression of MHC-II (p75^NTR [1]; p75^NTR+/+ PDCs stimulated with CpG A, presence of NGF): reduced expression; also recorded: decreased expression | expression of MHC I (p75^NTR [1]; [4]): further increased expression | expression of MHC-II (p75^NTR [1]; [4]): increased expression; also recorded: further increase | expression of ICOS-L and MHC-II (p75^NTR [1]; [5]): further increased; also recorded: increased expression | expression of MHC-I, PD-L1 and Ox40-L (p75^NTR [1]; [5]): altered the expression; also recorded: decreased expression | expression of MHC-I, PD-L1 and Ox40-L on p75^NTR−/− PDCs (p75^NTR [1]; p75^NTR−/− PDCs stimulated with ovalbumin, NGF added): but not on p75^NTR−/− PDCs | mortality (survival) (p75^NTR [2]; CpG B stimulated PDCs co-cultured in presence of NGF before transplantation): significantly increased mortality | severity of GvHD (cumulative GvHD incidence) (p75^NTR [2]; CpG B stimulated PDCs co-cultured with T-cells in presence of NGF before i.v. transplantation, 12 weeks): increased severity of GvHD | cumulative GvHD incidence or survival without CpG B (p75^NTR [2]; PDCs cultured without TLR stimulating CpG B, data not shown): no NGF dependent effect; also recorded: abolished the accelerating NGF effect | IFNα secretion (p75^NTR [3]; CPG-ODNs Class A (CpG A) stimulated p75^NTR+/+ PDCs, increasing NGF levels): decreasing levels; also recorded: reduced | expression of TLR9 (p75^NTR [3]; CpG A stimulated p75^NTR+/+ PDCs, NGF added): reduced expression; also recorded: negatively influenced | CPG-ODNs Class B induced secretion of IL-6 and TNFα (p75^NTR [3]; p75^NTR+/+ PDC in presence of NGF): increased | CpG-induced increase in TLR9 expression level (p75^NTR [3]; p75^NTR+/+ PDCs, CpG A or CpG B, presence of NGF): significantly decreased | TLR9 expression of p75^NTR−/− PDCs (p75^NTR [3]; p75^NTR−/− PDCs, CpG A or CpG B stimulation, NGF added): does not display a NGF induced alteration of TLR9 expression; also recorded: showed now difference in TLR9 expression
